How the values were obtained:
Gal4 (1-147) [1] = experiment: ensemble FRET; conditions: EMSA: 10 mM Tris-HCl pH 8, 130 mM NaCl, 10% glycerol, 0.0075% Tween-20, 0.5 nM DNA or nucleosome, smFRET: same Tris/NaCl/glycerol with 0.5% Tween-20, 0.1 mg/ml …
Gal4 (1-147) [2] = experiment: single-molecule FRET; conditions: EMSA: 10 mM Tris-HCl pH 8, 130 mM NaCl, 10% glycerol, 0.0075% Tween-20, 0.5 nM DNA or nucleosome, smFRET: same Tris/NaCl/glycerol with 0.5% Tween-20, 0.1 mg/ml …

Substance: P26 nucleosome D17
- K half (Gal4 (1-147) [1]; amino-C6-dT at nt 17 of strand 1): 9 nM

Substance: P26 nucleosome, 222 bp
- Kd (Gal4 (1-147) [2]; kon eff 0.11 nM-1 s-1, koff 0.66 s-1): 6.1 nM

Substance: P26 nucleosome, full Gal4 site (D1)
- K half (Gal4 (1-147) [1]): 4.3 nM

Substance: P28 nucleosome, full Gal4 site (called P29 once in text)
- K half (Gal4 (1-147) [1]; text prints P29): 1.7 nM

Substance: P31 nucleosome, 222 bp
- Kd (Gal4 (1-147) [2]; kon eff 0.0008 nM-1 s-1, koff 0.83 s-1): 980 nM

Substance: P31 nucleosome, full Gal4 site
- K half (Gal4 (1-147) [1]): 500 nM

Substance: P33 nucleosome, full Gal4 site
- K half (Gal4 (1-147) [1]): 240 nM

Substance: P36 nucleosome, 222 bp
- Kd (Gal4 (1-147) [2]; kon eff 0.004 nM-1 s-1, koff 1.03 s-1): 260 nM

Substance: P36 nucleosome, full Gal4 site
- K half (Gal4 (1-147) [1]): 290 nM

— publication PMC9943653
